Measured values reported in US7745417B2, “Nucleosides or nucleotides having novel unnatural bases and use thereof” (RIKEN, priority 2002, dated 2010).
Like-named read-outs stand apart in the source and are kept apart here.

Columns and labels:
Raf-1 RBD = molecular target: T1, Raf-1 RBD (Homo sapiens, UniProt P04049); assay: Binding efficiency to Raf-1 RBD by filter binding method; conditions: Raf-1 RBD/RNA=300:5 nM; triplicate average, standard deviation in parentheses
T1 construct: human Raf-1 RBD (amino acid residues 51-131); GST (N); made in house; host or cells: E. coli
Procedure: In this example, to examine changes in binding activity to Raf-1 RBD, each RNA site-selectively introduced with 5Iy was measured for binding efficiency by a filter binding method (Table 2). […] This means that the inventive method for site-selective introduction of 5Iy is advantageous.
(§1) The binding efficiency to Raf-1 RBD was measured for each RNA by a filter binding method (Raf-1 RBD/RNA=300:5 nM). Standard deviations are in parentheses. ^a RNA 9A transcribed from s-free template DNA in the presence of 0.4 mM 5IUTP. ^b RNA 9A transcribed from s-free template DNA in the presence of 0.25 mM 5IyTP.
Each RNA whose 5′-terminus was ^32P -labeled was warmed in Buffer A at 75° C. for 3 minutes and then allowed to stand at room temperature for 10 minutes or longer to form the secondary structure of RNA. On the other hand, to prepare Raf-1 RBD, human Raf-1 RBD (amino acid residues 51-131) was expressed as a GST (glutathione transferase)-fusion protein in E. coli cells and purified from the supernatant of crushed cells by column chromatography. Rat RGL RBD (amino acid residues 632-734) [Koyama et al., 1996] and human B-Raf RBD (amino acid residues 149-226) were also expressed as GST-fusion proteins in E. coli cells and purified in the same manner.

T7 RNA polymerase = T7 RNA polymerase (Escherichia phage T7, UniProt P00573); conditions: for misincorporation: 5IyTP +; for 5Iyp (number of nucleotides in transcription product): transcribed with 0.25 mM 5IyTP (+), theoretical number in parentheses
Chain of T7 RNA polymerase (P00573 whole entry): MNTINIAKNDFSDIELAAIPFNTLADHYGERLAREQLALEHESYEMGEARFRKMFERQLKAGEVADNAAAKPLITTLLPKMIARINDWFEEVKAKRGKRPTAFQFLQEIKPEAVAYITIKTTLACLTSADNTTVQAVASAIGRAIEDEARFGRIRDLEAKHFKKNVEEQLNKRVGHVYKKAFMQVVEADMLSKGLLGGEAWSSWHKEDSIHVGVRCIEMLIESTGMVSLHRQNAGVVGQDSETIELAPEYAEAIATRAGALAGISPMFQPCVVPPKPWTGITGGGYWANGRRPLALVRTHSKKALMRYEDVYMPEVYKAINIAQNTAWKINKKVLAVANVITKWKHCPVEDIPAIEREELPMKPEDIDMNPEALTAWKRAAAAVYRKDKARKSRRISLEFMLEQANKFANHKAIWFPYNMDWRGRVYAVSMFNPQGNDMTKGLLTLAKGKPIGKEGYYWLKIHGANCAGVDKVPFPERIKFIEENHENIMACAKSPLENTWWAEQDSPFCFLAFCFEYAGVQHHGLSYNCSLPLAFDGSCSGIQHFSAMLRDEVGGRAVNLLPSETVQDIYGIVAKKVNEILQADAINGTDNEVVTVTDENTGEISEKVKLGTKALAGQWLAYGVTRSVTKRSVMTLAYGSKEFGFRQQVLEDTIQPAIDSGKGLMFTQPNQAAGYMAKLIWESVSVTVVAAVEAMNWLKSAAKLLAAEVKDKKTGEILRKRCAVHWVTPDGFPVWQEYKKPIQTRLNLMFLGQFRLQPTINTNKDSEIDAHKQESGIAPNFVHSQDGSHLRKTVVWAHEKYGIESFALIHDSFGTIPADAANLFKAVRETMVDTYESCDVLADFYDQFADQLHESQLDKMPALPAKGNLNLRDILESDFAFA
Procedure: The reaction composition of T7 transcription may be the same as described in Ohtsuki et al., 2001. Details are as follows: 40 mM Tris-HCl (pH 8.0), 5 mM DTT, 24 mM MgCl2, 2 mM spermidine, 0.01% TritonX-100, 10 mM GMP, 1 mM NTPs, 0-0.25 mM 5IyTP, 0.2 μl/μl template DNA, and 2.5 U/μl T7 RNA polymerase (TaKaRa). After enzymatic reaction at 37° C. for 6 hours, each reaction product was purified by electrophoresis on an 8% polyacrylamide-7M urea gel.
When T7 transcription reaction is performed in the presence of [α-^32P]ATP or [α-^32P]GTP, a nucleoside 3′-phosphate (Np) 5′-terminal to A or G is labeled with ^32P. Each gel-purified RNA was completely digested into Np by RNase T2 (Sigma). If 5Iy is introduced at residue 84 or 92, the nucleoside 3′-phosphate of 5Iy (5IyTp) is labeled with ^32P via [α-^32P]GTP, while if 5Iy is introduced at residue 87, 5IyTp is labeled via [α-^32P]ATP (FIG. 5, FIG. 6-b). For base composition analysis of 5Iy-containing RNAs, each of the completely digested products was separated by 2D-TLC and determined for each nucleotide content.
More specifically, to completely digest RNA, 0.75 μl RNase T2 solution (5 units/μl; 100 mM NaOAc pH 4.5, 10% glycerol) was added to 4.25 μl aqueous solution containing the labeled RNA and a 0.25 OD E. coli-derived tRNA mixture (Sigma), followed by overnight enzymatic reaction at 37° C. A part of the reaction solution was spotted onto a 10 cm×10 cm TLC plate (Funacell SF; Funakoshi Co., Ltd., Japan) and developed in two dimensions. Developing solutions for the first and second dimensions are isobutyric acid/ammonia/water (66:1:33 by volume) and 2-propanol/hydrochloric acid/water (70:15:15 by volume), respectively. The developed spots were detected and quantified using a bioimaging analyzer (BAS2500, Fuji Photo Film Co., Ltd., Japan).
Each value was calculated from the following equation. The theoretical numbers of nucleotides are in parentheses.

[1] = tested on: Ras-induced Raf-1 activation; assay: Ras-induced Raf-1 activation in a cell-free system; format: biochemical; conditions: membrane fraction of Sf9 cells expressing Ras and Raf-1, cytoplasmic fraction of HEK293 cells
[2] = molecular target: T2, Raf-1 RBD/Ras interaction (Homo sapiens, UniProt P04049); assay: Inhibition of Raf-1 RBD/Ras interaction; format: biochemical; conditions: compared with aptamer from N60 pool
T2 construct: GST (N); made in house; host or cells: E. coli
Description: In this reference example, with the aim of designing a novel RNA molecule selectively regulating Ras/Raf-1 interaction in cellular signal transduction, RNA aptamers specifically binding to Raf-1 RBD were isolated by in vitro selection techniques. An RNA aptamer obtained from a pool containing random sequences of 60 nucleotides (N60) inhibited Raf-1 RBD/Ras interaction. […] In response to this, the selection technique was partially modified and used for selection on a pool containing newly designed RNA random sequences of 45 nucleotides (N45). The RT-PCR products were each subcloned into TA cloning vector pCR®II-TOPO using a TOPO TA Cloning Kit Dual (Invitrogen), and nucleotide sequences were determined for individual clones using a dRhodamine Terminator Cycle Sequencing Ready Reaction Kit (Applied Biosystems).

[3] = molecular target: B-Raf RBD/Ras interaction (Homo sapiens, UniProt P15056)
Chain of B-Raf RBD/Ras interaction (P15056 149-226): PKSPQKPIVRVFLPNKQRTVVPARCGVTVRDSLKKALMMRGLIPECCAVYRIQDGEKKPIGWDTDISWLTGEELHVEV

Raf-1 GST-RBD = molecular target: T3, Raf-1 GST-RBD (Homo sapiens, UniProt P04049); assay: Gel shift assay of binding to GST-RBD; conditions: 5% non-denaturing polyacrylamide gel
T3 construct: human Raf-1 RBD (amino acid residues 51-131); GST (N); made in house; host or cells: E. coli
Procedure: The product (XL) obtained by crosslinking reaction an equal concentration (0.1 μM) mixture of 9A(5Iy87) and Raf-1 RBD was purified from a gel and analyzed for binding between XL and GSTRBD by gel shift assay. As a control of RNA 9A dimer, RNA 9A molecules were also linked in tandem to newly prepare RNA 9A×2 (200 nucleotides in total length), followed by gel shift assay. RNA 9A×2 is an RNA molecule of 200 nucleotides in total length that has two essential regions of RNA 9A (residues 1-80) in its molecule. It was prepared by transcription reaction using T7 RNA polymerase (Epicentre) and subcloned into vector pCR®II-TOPO (Invitrogen).
Each RNA whose 5′-terminus was ^32P-labeled (0.8 pmol) was warmed in 20 μl Buffer A at 75° C. for 3 minutes and then allowed to stand at room temperature for 10 minutes or longer to form the secondary structure of RNA. […] Each aliquot was supplemented with 5 μl Raf-1 GST-RBD solution (containing, in addition to RBD, 160 μg/ml BSA, 1 mM DTT and 10% glycerol in Buffer A), incubated at 37° C. for 30 minutes, and then analyzed by electrophoresis on a 5% non-denaturing polyacrylamide gel (acrylamide:bisacrylamide=39:1). […]

[4] = Filter binding % (filter binding method, Table 2); conditions: triplicate average, standard deviation in parentheses
Procedure: as §1

B1: RNA 9A: anti-(Raf-1) RNA aptamer binding to Raf-1 RBD, 100 bases, SEQ ID NO: 1 (nucleic acid)
chain: GGGAGUGGAGGAAUUCAUCGAGGCAUAUGUCGACUCCGUCUUCCUUCAAACCAGUUAUAAAUUGGUUUUAGCAUAUGCCUUAGCGACAGCAAGCUUCUGC
modifications: chemistry not given here
Raf-1 RBD
  Raf-1 RBD binding %: 25 (5) %
T7 RNA polymerase; [α-32P]ATP label
  misincorporation: 0.45%
  5Iyp (number of nucleotides in transcription product): 0.10(0)
T7 RNA polymerase; [α-32P]GTP label
  misincorporation: 0.41%
  5Iyp (number of nucleotides in transcription product): 0.09(0)
[1]
  inhibition of Ras-induced Raf-1 activation: strongly inhibited
[2]
  inhibitory capacity against Raf-1 RBD/Ras interaction: higher inhibitory capacity
[3]
  inhibition of B-Raf RBD/Ras interaction: did not inhibit
Raf-1 GST-RBD
  complex formation with GST-RBD (gel shift pattern): 1:1 complex
[4]
  Filter binding %: 0.2 (0.1) %
